We go through five molecules from patent US20220025056A1 (INNATE PHARMA, published 2022).

As usually defined, the koff is the rate constant with which the complex falls apart. Usually EC50 stands for the concentration giving half of the maximal effect. A lower EC50 goes with higher potency in that assay. What is called EC50 (read off the curve) is the concentration that produces a half-maximal response. Low readings indicate higher potency in that assay, high ones lower potency in that assay. By Kd is commonly meant the free concentration of one partner at which half of the binding sites on the other are occupied at equilibrium, for simple one-to-one binding. Usually kon stands for the rate constant with which the complex forms.

For experiment [1], the target named is T1, anchored ILT2 D4 domain protein (human, UniProt Q8NHL6 322-650).
T1 construct: on CHO cells; the entry includes leader remnant, V5 tag, and the ILT2 transmembrane and cytoplasmic parts
Description: flow cytometry, CHO cells with anchored ILT2 domain proteins.

The target in experiment [2] is T2, anchored ILT2 D2 domain protein (human).
T2 construct: on CHO cells; the entry includes leader remnant, V5 tag and CD24 GPI anchor signal
The experiment is described as above.

Experiment [3] deals with T3, ILT-2_6xHis recombinant protein (human, UniProt Q8NHL6 24-458).
T3 construct: monomers purified by SEC; also called recombinant 6xHIS tagged ILT2; recombinant human ILT2 proteins
Description: SPR, antibody captured on Protein-A, soluble ILT2 analyte. The method, then:
Measurements were performed on a Biacore T200 apparatus (Biacore GE Healthcare) at 25° C. In all Biacore experiments HBS-EP+(Biacore GE Healthcare) and NaOH 10 mM served as running buffer and regeneration buffer respectively. Sensorgrams were analyzed with Biacore T100 Evaluation software. Protein-A was purchased from (GE Healthcare). Human ILT2 recombinant proteins were cloned, produced and purified at Innate Pharma. Protein-A proteins were immobilized covalently to carboxyl groups in the dextran layer on a Sensor Chip CM5. The chip surface was activated with EDC/NHS (N-ethyl-N′-(3-dimethylaminopropyl) carbodiimidehydrochloride and N-hydroxysuccinimide (Biacore GE Healthcare)). Protein-A was diluted to 10 μg/ml in coupling buffer (10 mM acetate, pH 5.6) and injected until the appropriate immobilization level was reached (i.e. 600 RU). Deactivation of the remaining activated groups was performed using 100 mM ethanolamine pH 8 (Biacore GE Healthcare). […] For blank subtraction, cycles were performed again replacing ILT2 proteins with running buffer. The monovalent affinity analysis was conducted following a regular Capture-Kinetic protocol as recommended by the manufacturer (Biacore GE Healthcare kinetic wizard). Seven serial dilutions of human ILT2 proteins, ranging from 1.95 nM to 250 nM were sequentially injected over the captured antibodies and allowed to dissociate for 10 min before regeneration. The entire sensorgram sets were fitted using the 1:1 kinetic binding model or two state reaction model, as a function of the profile of the curves.

For another experiment, the target named is T4, Mutant D4-4.
T4 construct: also called ILT2 mutant 4-4; mutant 4-4
As to the kind of experiment: flow cytometry titration on HEK293T cells transfected with ILT2 mutant 4-4. Background: Flow cytometry measures light scatter and fluorescence of single cells or particles in a stream.

In experiment [4] the target is T5, human ILT2 (LILRB1) expressed at the surface of transfected cells (human, UniProt Q8NHL6 24-650).
T5 construct: also called CHO-ILT2; CHO ILT2 cell line
Description: flow cytometry, CHO-ILT2 cells. The method, then:
Cells were incubated with various concentrations of unlabeled anti-ILT2 antibodies from 30 μg/ml to 5×10-⁴ μg/ml, for 30 minutes at 4° C. After washes with staining buffer, cells were incubated for 30 min at 4° C. with Goat anti-human H+L AF488 secondary antibody (Jackson Immunoresearch #109-546-088) or Goat anti-mouse H+L AF488 secondary antibody for commercially available antibodies (Jackson Immuoresearch #115-545-146). Fluorescence was measured on an Accury C6 flow cytometer equipped with an HTFC plate loader.

For experiment [5], the target named is T6, human ILT8 (LILRA6) on CHO cells (human, UniProt Q6PI73 24-477).
T6 construct: also called CHO ILT8 cell line
As to the kind of experiment: flow cytometry, CHO transfectants.

The target of experiment [6] is T7, human ILT4 (LILRB2) on CHO cells (human, UniProt Q8N423 23-597).
T7 construct: also called CHO ILT4 cell line
Description: flow cytometry, CHO transfectants.

The target of experiment [7] is T8, human ILT6 (LILRA3) on CHO cells (human, UniProt Q8N6C8 24-434).
T8 construct: also called CHO ILT6 cell line; human ILT-6 polypeptide
As to the kind of experiment: flow cytometry, CHO transfectants.

Experiment [8] concerns the target T9, human ILT3 (LILRB4) on CHO cells (human, UniProt Q8NHJ6 24-443).
T9 construct: also called CHO ILT3 cell line
As to the kind of experiment: flow cytometry, CHO transfectants.

Experiment [9] has as its target T10, human ILT7 (LILRA4) on CHO cells (human, UniProt P59901 28-494).
T10 construct: also called CHO ILT7 cell line
As to the kind of experiment: flow cytometry, CHO transfectants.

Experiment [10] addresses T11, human ILT1 (LILRA2) on CHO cells (human, UniProt Q8N149 24-475).
T11 construct: also called CHO ILT1 cell line
Description: flow cytometry, CHO transfectants.

For experiment [11], the target named is T12, human ILT5 (LILRB3) on CHO cells (human, UniProt O75022 24-626).
T12 construct: also called CHO ILT5 cell line
Description: flow cytometry, CHO transfectants.

Experiment [12] deals with T13, anchored ILT2 D3 domain protein (human).
T13 construct: on CHO cells; the entry includes leader remnant, V5 tag and CD24 GPI anchor signal
Description: flow cytometry on CHO cells expressing the anchored ILT2 D3 domain protein (SEQ ID NO: 48); stacked histograms, axis without numbers, no control histogram.

A further experiment addresses T14, ILT2 mutant 4-2 (human, UniProt Q8NHL6 24-650).
T14 construct: transfected in HEK293T cells
As to the kind of experiment: flow cytometry titration on HEK293T cells transfected with ILT2 mutant 4-2.

The target of experiment [13] is T15, human ILT2 on primary NK cells (human, UniProt Q8NHL6 24-650).
T15 construct: whole, on cells
Description: flow cytometry, primary NK cells.

Another experiment deals with T16, Mutant D4-1B.
T16 construct: read as S304F; also called ILT2 mutant 4-1b; mutant 4-1b
Description: flow cytometry titration on HEK293T cells transfected with ILT2 mutant 4-1b.

Another experiment concerns the target T17, ILT2 mutant 4-1 (human, UniProt Q8NHL6 24-650).
T17 construct: transfected in HEK293T cells
As to the kind of experiment: flow cytometry titration on HEK293T cells transfected with ILT2 mutant 4-1.

In experiment [14] the target is T18, anchored ILT2 D1 domain protein (human).
T18 construct: on CHO cells; the entry includes leader remnant, V5 tag and CD24 GPI anchor signal
Description: flow cytometry on CHO cells expressing the anchored ILT2 D1 domain protein (SEQ ID NO: 46); stacked histograms, axis without numbers.

Experiment [15] concerns the target T19, anchored ILT2 D1-D2-D3 domain protein (human, UniProt Q8NHL6 24-321).
T19 construct: on CHO cells; the entry includes leader remnant, V5 tag and CD24 GPI anchor signal
As to the kind of experiment: flow cytometry, CHO cells with anchored ILT2 domain proteins.

Experiment [16] deals with T20, anchored ILT2 D2-D3 domain protein (human, UniProt Q8NHL6 122-321).
T20 construct: on CHO cells; the entry includes leader remnant, V5 tag and CD24 GPI anchor signal
The description is as above.

In experiment [17] the target is T21, anchored ILT2 D1-D2 domain protein (human, UniProt Q8NHL6 24-222).
T21 construct: on CHO cells; the entry includes leader remnant, V5 tag and CD24 GPI anchor signal
The description is as above.

The target of experiment [18] is T5, human ILT2 (LILRB1) expressed at the …. As to the kind of experiment: flow cytometry titration on HEK293T cells transfected with wild-type ILT2.
Experiment [19] has as its target T15, human ILT2 on primary NK cells. As to the kind of experiment: cell-based or functional assay.

T2 sequence (chain, as listed by the source limits assumed): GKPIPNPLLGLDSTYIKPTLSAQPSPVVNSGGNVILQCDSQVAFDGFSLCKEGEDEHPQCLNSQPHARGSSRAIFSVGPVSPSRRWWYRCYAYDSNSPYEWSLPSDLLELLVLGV
T1 sequence (Q8NHL6 other isoform, or with tags, fused parts or gaps limits assumed): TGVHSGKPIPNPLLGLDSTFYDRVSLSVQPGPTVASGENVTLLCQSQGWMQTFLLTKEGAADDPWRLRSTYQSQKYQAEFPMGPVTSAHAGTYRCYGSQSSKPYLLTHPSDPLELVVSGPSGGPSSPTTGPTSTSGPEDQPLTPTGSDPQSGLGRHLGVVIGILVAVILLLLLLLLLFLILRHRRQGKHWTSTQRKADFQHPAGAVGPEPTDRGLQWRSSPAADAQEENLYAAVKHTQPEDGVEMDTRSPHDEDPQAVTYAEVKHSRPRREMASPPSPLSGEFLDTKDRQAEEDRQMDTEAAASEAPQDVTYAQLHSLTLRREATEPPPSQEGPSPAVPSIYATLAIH
T15 sequence (Q8NHL6 24-650): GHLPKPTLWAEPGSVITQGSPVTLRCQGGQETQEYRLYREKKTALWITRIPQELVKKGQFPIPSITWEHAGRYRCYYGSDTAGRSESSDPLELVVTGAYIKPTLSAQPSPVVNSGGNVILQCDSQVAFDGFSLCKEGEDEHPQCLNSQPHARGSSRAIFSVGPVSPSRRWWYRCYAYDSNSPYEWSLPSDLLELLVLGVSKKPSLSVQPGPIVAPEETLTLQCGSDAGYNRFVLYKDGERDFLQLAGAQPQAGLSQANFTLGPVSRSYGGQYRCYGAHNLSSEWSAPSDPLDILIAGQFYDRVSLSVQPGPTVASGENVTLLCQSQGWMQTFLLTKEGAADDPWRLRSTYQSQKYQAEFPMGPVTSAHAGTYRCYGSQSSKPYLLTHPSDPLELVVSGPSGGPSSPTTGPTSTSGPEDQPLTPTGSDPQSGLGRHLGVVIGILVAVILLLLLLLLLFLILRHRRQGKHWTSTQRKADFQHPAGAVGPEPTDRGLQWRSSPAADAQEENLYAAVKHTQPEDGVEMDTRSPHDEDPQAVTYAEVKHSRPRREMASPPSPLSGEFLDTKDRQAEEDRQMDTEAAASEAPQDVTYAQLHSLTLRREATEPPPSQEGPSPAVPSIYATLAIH
T5 sequence (Q8NHL6 24-650): as above
T3 sequence (Q8NHL6 other isoform, or with tags, fused parts or gaps limits assumed): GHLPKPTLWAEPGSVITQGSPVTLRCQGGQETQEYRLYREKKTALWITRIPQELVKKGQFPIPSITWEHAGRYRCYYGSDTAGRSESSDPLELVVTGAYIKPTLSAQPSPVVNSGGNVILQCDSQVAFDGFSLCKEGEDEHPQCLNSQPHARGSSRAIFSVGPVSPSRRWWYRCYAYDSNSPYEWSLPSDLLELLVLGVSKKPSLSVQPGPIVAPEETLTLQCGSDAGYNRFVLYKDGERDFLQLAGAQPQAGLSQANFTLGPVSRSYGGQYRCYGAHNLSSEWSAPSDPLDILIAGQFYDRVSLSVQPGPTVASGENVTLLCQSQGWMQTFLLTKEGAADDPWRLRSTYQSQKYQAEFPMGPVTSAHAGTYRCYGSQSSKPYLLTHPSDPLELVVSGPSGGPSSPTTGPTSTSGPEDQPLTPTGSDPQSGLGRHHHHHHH
T14 sequence (Q8NHL6 other isoform, or with tags, fused parts or gaps mutant): as the sequence (Q8NHL6 24-650) above, with W328G, Q330H, R347A, T349A, Y350S, Y355A counted along it
T16 sequence (receptor chain, as listed by the source mutant): as the sequence (Q8NHL6 24-650) above, with Y300R, D301A, R302A, S304F, H387A, D390A counted along it
T20 sequence (Q8NHL6 other isoform, or with tags, fused parts or gaps limits assumed): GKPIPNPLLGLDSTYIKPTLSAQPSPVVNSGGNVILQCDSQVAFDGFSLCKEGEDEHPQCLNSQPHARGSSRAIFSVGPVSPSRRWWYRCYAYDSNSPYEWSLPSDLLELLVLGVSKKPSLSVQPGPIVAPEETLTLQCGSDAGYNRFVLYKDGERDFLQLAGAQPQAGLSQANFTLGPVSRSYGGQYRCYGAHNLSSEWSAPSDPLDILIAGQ
T9 sequence (Q8NHJ6 other isoform, or with tags, fused parts or gaps): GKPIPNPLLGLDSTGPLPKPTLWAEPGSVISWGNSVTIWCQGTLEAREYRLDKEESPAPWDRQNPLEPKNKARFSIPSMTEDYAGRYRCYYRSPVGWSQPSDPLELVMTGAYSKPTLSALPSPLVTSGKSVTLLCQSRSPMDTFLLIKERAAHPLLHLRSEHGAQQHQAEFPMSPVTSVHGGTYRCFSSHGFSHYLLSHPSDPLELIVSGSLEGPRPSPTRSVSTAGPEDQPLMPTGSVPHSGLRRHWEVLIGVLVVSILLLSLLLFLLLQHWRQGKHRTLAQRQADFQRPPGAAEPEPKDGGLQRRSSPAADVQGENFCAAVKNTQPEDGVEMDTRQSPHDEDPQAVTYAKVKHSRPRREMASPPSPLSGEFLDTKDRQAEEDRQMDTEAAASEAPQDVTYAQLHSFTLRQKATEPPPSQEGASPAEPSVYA
T10 sequence (P59901 other isoform, or with tags, fused parts or gaps): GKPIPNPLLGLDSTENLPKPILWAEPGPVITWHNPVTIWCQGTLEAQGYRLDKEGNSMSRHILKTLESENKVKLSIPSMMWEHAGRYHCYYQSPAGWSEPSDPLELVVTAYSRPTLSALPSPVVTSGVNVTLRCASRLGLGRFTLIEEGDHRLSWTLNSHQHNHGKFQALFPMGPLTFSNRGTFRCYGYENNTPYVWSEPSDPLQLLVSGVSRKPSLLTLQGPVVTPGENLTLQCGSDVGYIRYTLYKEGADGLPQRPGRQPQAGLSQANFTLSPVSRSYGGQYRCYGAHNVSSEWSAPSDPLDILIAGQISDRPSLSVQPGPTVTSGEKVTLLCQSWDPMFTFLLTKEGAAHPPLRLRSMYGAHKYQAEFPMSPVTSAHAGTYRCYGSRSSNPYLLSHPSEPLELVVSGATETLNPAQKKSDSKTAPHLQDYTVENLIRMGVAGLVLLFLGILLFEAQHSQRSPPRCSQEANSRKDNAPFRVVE
T8 sequence (Q8N6C8 other isoform, or with tags, fused parts or gaps): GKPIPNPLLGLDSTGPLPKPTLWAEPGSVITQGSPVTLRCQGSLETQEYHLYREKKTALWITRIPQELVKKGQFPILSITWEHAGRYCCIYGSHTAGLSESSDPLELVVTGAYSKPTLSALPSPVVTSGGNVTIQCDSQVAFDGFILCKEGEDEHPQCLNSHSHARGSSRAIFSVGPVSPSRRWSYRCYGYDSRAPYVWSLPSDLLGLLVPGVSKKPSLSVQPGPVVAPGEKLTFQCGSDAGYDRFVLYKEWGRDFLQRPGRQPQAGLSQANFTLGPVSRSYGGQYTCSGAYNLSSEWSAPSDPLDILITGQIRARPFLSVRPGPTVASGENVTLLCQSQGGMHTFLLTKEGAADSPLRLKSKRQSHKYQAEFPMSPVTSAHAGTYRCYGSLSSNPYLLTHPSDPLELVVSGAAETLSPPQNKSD

B1: 1A9 (antibody, human IgG1, V domains shown)
VH: EVKLQQSGPDLVKPGASVKISCKASGYSFTNFYIHWVKQRPGQGLEWIGWIFPGNGETNYSEKFKGKATLTADTSSSTAYMQFNSLTYEDSAVYFCARTWNYDARWGYWGQGTTLTVSS
VL: DVVMTQTPASLAVSLGQRATISCRASDGIDSYGISFMRWYQQKPGQPPTLLIYRASTLESGIPARFSGSGSRTNFTLTINPVEADDVATYYCQQTNEDPFTFGSGTKLEIK
With B1, the binding result in experiment [1] and in experiment [2] was “no binding” throughout.

B2: 1E4C (antibody, human IgG1, V domains shown)
VH: QRELQQSGPELVKPGASVNISCKASGYSFTNHYINWVKQRPGQGLEWIGWIFPGNGDTNYNEKFKGKATLTADTSSSTAYMQLSSLTSEDSAVYFCARTWNYDARWGYWGQGTTVTVSS
VL: DVVMTQTPAFLAVSLGQRATISCRASESIDSYGISFMHWYQQKPGQPPKVLIYRTSNLESGIPARFSGSGSRTDFTLTINPVEADDVATYYCQQSNEDPFTFGSGTKLEIK
In the case of B2, the binding result in experiment [1] and in experiment [2] was “no binding” each time.

B3: 27C10 (antibody, human IgG1, V domains shown)
VH: EVQLQESGPGLVKPSQSLSLTCSVTGYSITSGYYWNWIRQFPENKLEWMGYIRYDGSNNYNPSLNNRISITRDASKNQFFLKLNSVTTEDTATYYCARGWLLWFYAVDYWGQGTSVTVSS
VL: DVVMTQTPLSLPVSLGDQASISCRSSQSIVHTNGNTYLEWYLQKSGQSPKLLIYKVSNRLSGVPDRFSGSGSGTDFTLKISRVEAEDLGIYYCFQGSHVPWTFGGGTKLEIK
For B3, in experiment [3], the koff amounted to 0.0003 s⁻¹. The binding result in the experiment with Mutant D4-4 was “binds”; in experiment [5], “no binding”; in [6], “no binding”; in experiment [7], “no binding”; in experiment [8], “no binding”; in experiment [9] it was “no binding”. In addition, the binding result in experiment [10] is on record as “no binding”; in experiment [11] it was “no binding”; in [12], “no binding”; in the experiment with ILT2 mutant 4-2, “binds”; with Mutant D4-1B, “binds”; in experiment [14], “no binding”. The binding result in experiment [2], in experiment [15], in [16] and in experiment [17] was “no binding” in each case. Further, the EC50 turned out to be 0.25 µg/mL in experiment [4] and 0.33 µg/mL in experiment [13]. Besides, the “EC50 (read off the curve)” value with ILT2 mutant 4-1 is around 0.4 µg/mL.

B4: 26D8 (antibody, human IgG1, V domains shown)
VH: QVQLQQSGAELVKPGASVKLSCKASGYTFTEHTIHWIKQRSGQGLEWIGWFYPGSGSMKYNEKFKDKATLTADKSSSTVYMELTRLTSEDSAVYFCARHTNWDFDYWGQGTTLTVSS
VL: DIVLTQSPASLAVSLGQRATISCKASQSVDYGGDSYMNWYQQKPGQPPKLLIYAASNLESGIPARFSGSGSGTDLTLNIHPVEEDDAAMYYCQQSNEEPWTFGGGTKLEIK
Turning to B4, in experiment [3], the Kd came to 0.4 nM. In experiment [3], the koff was determined as 0.00022 s⁻¹. Further, the kon in experiment [3] is 620000 M⁻¹ s⁻¹. Besides, the “EC50 (read off the curve)” value was around 0.2 µg/mL with Mutant D4-4 and around 0.3 µg/mL in experiment [18]. The EC50 in experiment [4] turned out to be 0.15 µg/mL; in [13], 0.11 µg/mL. In addition, the binding result in [5], in [6], in [7], in experiment [8], in experiment [9] and in [10] was “no binding” each time. In addition, the binding result in [11] is “no binding”; in experiment [12], “no binding”; with ILT2 mutant 4-2, “no binding (tested: about 20 µg/ml)”; with Mutant D4-1B, “binds”; with ILT2 mutant 4-1 it was “no binding (tested: about 20 µg/ml)”; in experiment [14], “no binding”. Besides, the binding result in [2], in [15], in [16] and in experiment [17] was “no binding” throughout. Further, the “CD137 expression on ILT2-positive primary NK cells” value in [19] is 2 fold. Further, the “CD137 expression on NK cells of urothelial cancer patients with HLA-A2-expressing B cells” value in experiment [19] is above 2 fold.

B5: 3A7A (antibody, human IgG1, V domains shown)
VH: QVQLKESGPELVKPGTSVKISCKASGYNFRNYYIQWVKQRPGQGLEWIGWIFPGNNETNYNEKFKGKATLSADTSSTTAYMQLSSLTSEDSAVYFCARSWNYDARWGYWGQGTTVTVSS
VL: DVVMTQTPASLAVSLGQRATISCRASEIIDNYGISFIHWYQQKPGQPPKLLIYRASNLESGIPARFSGSGSRTDSTLTINPVGADDVATYYCQQSNEDPFTFGSGTKLELK
With B5, the binding result in experiment [1] and in experiment [2] was “no binding” throughout.
